The record followed here is US20220356230A1 (published 2022).

Assay [1] deals with T1, MERS-CoV (SARS-CoV-2) Spike Protein S2 (aa 726-1296, His Tag) (Sino 40070-[change]) (MERS-CoV, UniProt K9N5Q8 726-1296).
T1 sequence: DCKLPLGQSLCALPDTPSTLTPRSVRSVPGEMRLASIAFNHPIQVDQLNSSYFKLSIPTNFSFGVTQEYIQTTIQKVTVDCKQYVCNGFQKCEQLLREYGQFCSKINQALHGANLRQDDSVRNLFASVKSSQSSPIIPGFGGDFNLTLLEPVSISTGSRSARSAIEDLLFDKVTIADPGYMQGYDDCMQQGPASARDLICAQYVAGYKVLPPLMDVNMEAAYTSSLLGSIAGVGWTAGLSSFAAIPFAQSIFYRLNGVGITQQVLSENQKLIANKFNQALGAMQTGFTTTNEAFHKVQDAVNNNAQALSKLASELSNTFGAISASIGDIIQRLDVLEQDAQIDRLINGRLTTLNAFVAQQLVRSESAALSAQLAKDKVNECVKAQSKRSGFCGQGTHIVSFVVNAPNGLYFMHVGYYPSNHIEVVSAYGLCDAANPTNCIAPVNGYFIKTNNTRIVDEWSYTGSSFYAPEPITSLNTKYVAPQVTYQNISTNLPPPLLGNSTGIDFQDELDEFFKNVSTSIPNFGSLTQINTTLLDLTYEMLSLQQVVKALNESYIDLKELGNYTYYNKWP
Description: Luminex bead assay, supernatant on antigen microspheres.

Assay [2] concerns the target T2, MERS-CoV (SARS-CoV-2) Spike Protein (ECD, aa 1-1297, His Tag) (Sino 40069-[change]) (MERS-CoV, UniProt K9N5Q8 18-1297).
T2 sequence: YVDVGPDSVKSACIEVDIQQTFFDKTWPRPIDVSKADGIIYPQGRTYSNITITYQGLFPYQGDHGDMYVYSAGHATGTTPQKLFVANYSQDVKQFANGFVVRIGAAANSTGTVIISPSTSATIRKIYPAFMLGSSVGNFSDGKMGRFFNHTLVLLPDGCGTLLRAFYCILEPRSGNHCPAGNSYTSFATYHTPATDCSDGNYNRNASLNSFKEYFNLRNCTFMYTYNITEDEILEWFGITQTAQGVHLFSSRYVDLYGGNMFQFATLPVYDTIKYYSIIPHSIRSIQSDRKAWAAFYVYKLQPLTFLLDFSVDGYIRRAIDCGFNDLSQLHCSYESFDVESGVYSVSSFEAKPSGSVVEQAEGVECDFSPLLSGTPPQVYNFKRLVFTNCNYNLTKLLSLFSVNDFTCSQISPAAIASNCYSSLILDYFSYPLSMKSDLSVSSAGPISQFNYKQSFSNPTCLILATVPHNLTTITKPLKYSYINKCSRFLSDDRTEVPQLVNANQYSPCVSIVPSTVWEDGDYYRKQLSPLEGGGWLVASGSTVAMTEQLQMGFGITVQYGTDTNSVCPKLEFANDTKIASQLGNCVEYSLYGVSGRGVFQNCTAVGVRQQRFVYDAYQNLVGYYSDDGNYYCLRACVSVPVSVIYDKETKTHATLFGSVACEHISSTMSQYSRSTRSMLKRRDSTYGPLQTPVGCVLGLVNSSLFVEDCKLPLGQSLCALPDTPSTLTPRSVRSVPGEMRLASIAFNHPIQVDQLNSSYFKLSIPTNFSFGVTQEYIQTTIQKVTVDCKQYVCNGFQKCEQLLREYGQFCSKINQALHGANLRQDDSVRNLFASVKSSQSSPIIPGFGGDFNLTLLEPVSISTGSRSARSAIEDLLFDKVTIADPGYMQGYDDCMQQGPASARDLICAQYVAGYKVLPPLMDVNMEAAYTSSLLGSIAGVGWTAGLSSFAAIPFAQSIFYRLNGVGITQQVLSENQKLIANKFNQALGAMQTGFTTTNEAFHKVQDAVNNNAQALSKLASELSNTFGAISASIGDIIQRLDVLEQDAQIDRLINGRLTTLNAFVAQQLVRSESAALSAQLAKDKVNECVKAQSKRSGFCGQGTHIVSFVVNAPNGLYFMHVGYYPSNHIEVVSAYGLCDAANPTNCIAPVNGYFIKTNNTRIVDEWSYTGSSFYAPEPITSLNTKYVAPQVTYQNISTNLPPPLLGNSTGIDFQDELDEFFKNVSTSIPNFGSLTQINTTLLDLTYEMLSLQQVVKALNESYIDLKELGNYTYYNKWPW
Description: Luminex bead binding, antigen on microspheres, antibody supernatant.

The target in assay [3] is Human SARS Coronavirus Spike S1 Subunit Protein (His Tag) (Sino 40150-V08B1) (Human SARS Coronavirus, UniProt P59594 14-667). Described as above.
Assay [4] addresses T3, MERS-CoV (SARS-CoV-2) Spike Protein S2 (aa 726-1296, His Tag) (Sino 40070-[change]) (MERS-CoV, UniProt K9N5Q8 726-1296).
T3 sequence: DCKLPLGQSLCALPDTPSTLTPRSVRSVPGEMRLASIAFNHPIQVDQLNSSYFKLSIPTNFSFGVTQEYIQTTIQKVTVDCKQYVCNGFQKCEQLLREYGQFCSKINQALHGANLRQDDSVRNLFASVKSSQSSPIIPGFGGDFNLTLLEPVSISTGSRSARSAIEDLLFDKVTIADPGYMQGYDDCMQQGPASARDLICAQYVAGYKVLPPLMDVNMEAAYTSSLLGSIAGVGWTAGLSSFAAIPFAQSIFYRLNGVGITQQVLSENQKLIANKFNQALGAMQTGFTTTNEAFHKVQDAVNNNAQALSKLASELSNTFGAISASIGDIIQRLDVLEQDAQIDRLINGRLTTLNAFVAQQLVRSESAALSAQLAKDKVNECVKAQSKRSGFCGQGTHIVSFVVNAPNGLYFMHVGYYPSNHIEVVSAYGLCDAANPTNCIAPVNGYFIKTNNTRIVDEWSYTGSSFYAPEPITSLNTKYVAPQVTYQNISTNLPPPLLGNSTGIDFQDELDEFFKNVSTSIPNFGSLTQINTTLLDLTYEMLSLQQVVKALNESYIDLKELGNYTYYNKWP
The assay is described as above.

The target of assay [5] is T4, MERS-CoV (SARS-CoV-2) Spike Protein (ECD, aa 1-1297, His Tag) (Sino 40069-[change]) (MERS-CoV, UniProt K9N5Q8 18-1297).
T4 sequence: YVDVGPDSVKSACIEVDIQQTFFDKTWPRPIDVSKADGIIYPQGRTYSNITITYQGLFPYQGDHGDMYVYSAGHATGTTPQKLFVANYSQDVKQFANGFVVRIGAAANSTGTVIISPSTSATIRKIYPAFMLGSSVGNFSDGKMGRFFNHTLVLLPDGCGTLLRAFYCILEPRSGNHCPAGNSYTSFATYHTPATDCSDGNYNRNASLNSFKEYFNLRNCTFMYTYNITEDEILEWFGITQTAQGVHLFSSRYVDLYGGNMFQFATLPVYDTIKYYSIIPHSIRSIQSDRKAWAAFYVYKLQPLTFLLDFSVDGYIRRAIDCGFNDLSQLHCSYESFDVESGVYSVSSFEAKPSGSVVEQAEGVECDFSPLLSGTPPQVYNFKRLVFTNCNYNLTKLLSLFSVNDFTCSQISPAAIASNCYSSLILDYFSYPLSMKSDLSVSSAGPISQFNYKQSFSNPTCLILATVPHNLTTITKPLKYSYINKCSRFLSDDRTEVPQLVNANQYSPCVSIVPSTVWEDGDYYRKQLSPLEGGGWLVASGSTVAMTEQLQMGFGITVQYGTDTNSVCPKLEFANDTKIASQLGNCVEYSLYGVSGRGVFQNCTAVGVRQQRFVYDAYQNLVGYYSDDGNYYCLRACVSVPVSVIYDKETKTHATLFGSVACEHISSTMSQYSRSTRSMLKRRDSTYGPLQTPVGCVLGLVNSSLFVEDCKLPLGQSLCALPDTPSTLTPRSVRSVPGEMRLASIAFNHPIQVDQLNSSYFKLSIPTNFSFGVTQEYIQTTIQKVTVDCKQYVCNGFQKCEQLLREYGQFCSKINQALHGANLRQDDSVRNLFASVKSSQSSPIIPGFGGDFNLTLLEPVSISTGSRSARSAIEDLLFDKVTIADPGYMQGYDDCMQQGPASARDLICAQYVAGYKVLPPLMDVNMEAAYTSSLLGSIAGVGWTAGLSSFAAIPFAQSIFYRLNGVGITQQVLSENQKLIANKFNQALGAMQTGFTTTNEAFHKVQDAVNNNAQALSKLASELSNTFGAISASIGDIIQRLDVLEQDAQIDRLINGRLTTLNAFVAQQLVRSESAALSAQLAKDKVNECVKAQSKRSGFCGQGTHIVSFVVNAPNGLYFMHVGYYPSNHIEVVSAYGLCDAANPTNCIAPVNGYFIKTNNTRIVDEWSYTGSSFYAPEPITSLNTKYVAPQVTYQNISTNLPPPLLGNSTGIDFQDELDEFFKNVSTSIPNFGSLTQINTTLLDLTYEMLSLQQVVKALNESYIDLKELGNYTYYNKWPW
Description: Luminex bead assay, supernatant on antigen microspheres.

Assay [6] has as its target SARS-CoV-2 spike protein (S-wt, Wuhan-Hu-1, NCBI Accession Number MN908947.3) on VSV-SARS-CoV-2-S … (SARS-CoV-2, UniProt P0DTC2 14-1273). Description: cell-based or functional assay.

B1: mAb10915 (antibody, V domains shown)
VH: EVQLVESGGGLVQPGGSLRLSCAASGFTVSSNYMNWVRQAPGKGLEWVSVIYSGGSTFYADSVKGRFTISRHNSKNTLYLQMNSLRPEDTAVYYCARDLGGYFDYWGQGTLVTVSS
VL: not shown
As to B1, the “Binding signal (MFI)” value in assay [1] amounted to 23 MFI.

B2: mAb10955 (antibody, V domains shown)
VH: EVQLVESGGGLVQPGGSLRVSCAASGFTVSRNYMSWVRQAPGKGLEWVSVIYSGGSTFYADSVKGRFTISRDNSKNTLYLQMNSLRAEDTAIYYCARYIPRFDPWGQGTLVTVSS
VL: DIQMTQSPSSLSASVGDRVTITCQASQDISNYLNWFQQKPGRAPKLLIYDASNLETGVPSRFSGSGSGTDFTFTISSLQPEDIATYYCQQYDNLPITFGQGTRLEIKR
For the molecule B2, the MFI in assay [2] was determined as 15 MFI; in assay [3], 14 MFI; in assay [4], 18 MFI.

B3: mAb10933 (antibody, V domains shown)
VH: QVQLVESGGGLVKPGGSLRLSCAASGFTFSDYYMSWIRQAPGKGLEWVSYITYSGSTIYYADSVKGRFTISRDNAKSSLYLQMNSLRAEDTAVYYCARDRGTTMVPFDYWGQGTLVTVSS
VL: DIQMTQSPSSLSASVGDRVTITCQASQDITNYLNWYQQKPGKAPKLLIYAASNLETGVPSRFSGSGSGTDFTFTISGLQPEDIATYYCQQYDNLPLTFGGGTKVEIKR
For B3, the “Binding signal (MFI)” value in assay [1] is 19 MFI.

B4: mAb10934 (antibody, V domains shown)
VH: not shown
VL: DIQMTQSPSSLSASVGDRVTITCQASQDIWNYINWYQQKPGKAPKLLIYDASNLKTGVPSRFSGSGSGTDFTFTISSLQPEDIATYYCQQHDDLPPTFGQGTKVEIKR
In the case of B4, in assay [5], the “Binding signal (MFI)” value was determined as 15 MFI.

B5: mAb10913 (antibody, V domains shown)
VH: EVQLVESGGGLVQPGGSLRLSCAASGFTFRNYEMNWVRQAPGKGLEWVSYITSSGSTMYYADSVKGRFTISRDNAKNSLYLQMNSLRAEDTAVYYCARDGFYYYYAMDVWGQGTTVTVSS
VL: QSVLTQPPSVSAAPGQKVTISCSGSSSNIGNNYVSWYQQLPGTAPKLLIYDNNKRPSGIPDRFSGSKSGTSATLGITGLQTGDEADYYCGTWDSSLSVGRVFGTGTKVTVLG
For the molecule B5, the “Binding signal (MFI)” value in assay [5] was 20 MFI; in assay [1] it was 26 MFI.

B6: mAb10986 (antibody, V domains shown)
VH: EVQLVESGGGLVQPGGSLRLSCAASEFTVSSNYMSWVRQAPGKGLEWVSVIYSGGSTFYADSVKGRFTISRDNSKNTLYLQMNSLRAEDTAVYYCARALPYGDLHFDYWGQGTLVTVSS
VL: QSVLTQPPSVSGAPGQRVTISCTGSSSNIGTGYDVHWYQQLPGTAPKLLIYGNTNRPSGVPDRFSGSKSGTSASLAITGLQAEDEADYYCQSYDSSLSDSYVFGTGTKVTVLG
For the molecule B6, the “mAb neutralization potency (IC50 (M))” value in assay [6] is 9.91e-11 M.

B7: mAb10956 (antibody, V domains shown)
VH: EVQLVESGGGLVQPGGSLRLSCAASGLTVSSNYMSWVRQAPGKGLEWVSVIYSGGSTFYADSVKGRFTISRDNSKNTLYLQMNSLRAEDTAVYYCARDLIKYGMDVWGQGTTVTVSS
VL: not shown
Turning to B7, the MFI in assay [2] was determined as 15 MFI; in assay [3] it was 16 MFI; in assay [4], 16 MFI.

B8: mAb10957 (antibody, V domains shown)
VH: EVQLVESGGGLVQPGGSLRLSCAASGVTVSSNYMSWVRQAPGKGLEWVSVIYSGGSTFYADSVKGRFTISRDNSKNTLFLQMNSLRIEDTAVYYCARDLGPYGMDVWGQGTTVTVSS
VL: DIQLTQSPSFLSASVGDRVTITCRASQGISSYLAWYQQKPGKAPKLLIYAASTLQSGVPSRFSGSGSGTQFILTISSLQPEDFATYYCQQLNSYPGFTFGPGTKVDIKR
Turning to B8, the MFI in assay [2] was determined as 15 MFI; in assay [3] it was 16 MFI; in assay [4], 18 MFI.

B9: mAb10914 (antibody, V domains shown)
VH: EVQLVESGGGLVQPGGSLRLSCAASGLIVSRNYMIWVRQAPGKGLEWVSVIYSGGSTFYADSVKGRFTISRHNSKNTLYLQMNSLRAEDTAVYYCARDLGTGGMDVWGQGTTVTVSS
VL: DIQLTQSPSFLSASVGDRVTITCWASQGISSYLAWYQQKPGKAPKLLIYAASTLQSGVPSRFSGSGSGTEFTLTISSLQPEDFATYYCQQLNSYPLTFGGGTKVEIKR
Consider B9, for which the “Binding signal (MFI)” value came out at 19 MFI in assay [5] and 28 MFI in assay [1].
